Laboratory results: patent publication US11365264B2, “Therapeutic methods and compositions” (INSTITUT PASTEUR, priority 2013, dated 2022)

Assays:
purified HD CD4 T cells [1] = type: cell-based, human
purified HD CD4 T cells [2] = experiment: Inhibition of IL-7-induced STAT5 phosphorylation and nuclear translocation; type: cell-based, human; conditions: for effect on IL-7 induced nuclear translocation of phosphoSTAT5 (NT pSTAT5): CD4 T cells, IL-7 stimulation
Procedure: CD4 T-cells were purified by negative selection as already described (10) then activated with 2 nM recombinant glycosylated human IL-7 (Cytheris) or 40 μg PHA (Sigma). The confocal and STED microscopy used to study cell surface microdomains (MMD) and phospho-STAT5 cellular compartment distribution has already been described (10, 12). FCS analysis of protein diffusion at the surface of living cells has also been described (10, 12
Cells were then plated on polylysine-coated glass slides for 10 min then activated by 15 min IL-7 (2 nM) or not for control (NS), then fixed by PFA (PFA, 1.5%, 15 min at 37° C. followed by 15 min at room temperature) and permeabilization by methanol (90% at −20° C.). Cells were equilibrated one hour in PBS/SVF 5% then phospho-STAT5 was then stained by rabbit anti-STAT5 labelled with goat anti-rabbit-Atto642 and analyzed by FACS or STED microscopy.
VP plasma containing PLA2sGIB was first incubated with purified HD CD4 T cells (20 min) before stimulation by IL-7 (2 nM, 15 min.). Cells were then plated on polylysine coated glass slides before fixation by PFA (1.5%) and permeabilization by methanol (90% at −20° C.). pSTAT5 was then stained by rabbit anti-STAT5 labelled with goat anti-rabbit-Atto642 and analyzed by FACS or pulsed STED microscopy.

[3] = Enz Check PLA2 enzymatic assay; conditions: for enzymatic activity (in words): recombinant PLA2 proteins produced in E. coli; for enzymatic activity of mutant vs recombinant porcine PLA2 GIB: each protein at 200 microM, FIG. 12
Procedure: The assay was performed with the Enz Check PLA2 assay kit from Life Technologies (ref.: E102147). […] The PLA2 activity is followed by the intensity increase of a single wavelength at 515 nm. PLA2 is detected by changes in the emission intensity ratio at 515/575 nm with excitation at 460 nm. Specific activities are expressed in amount of fluorescent substrate (U) obtained per second and per μg of enzyme in solution.
Each protein was used at 200 microM.

human GIBsPLA2 = biological target: T1, human GIBsPLA2 (Homo sapiens, UniProt P04054); experiment: Inhibitor test: inhibition of IL-7-induced pSTAT5 nuclear translocation by viremic plasma or PLA2 GIB; type: cell-based; conditions: 100 nM inhibitor, human PLA2G1B, FIG. 16
T1 construct: from tissue
T1 sequence (P04054 23-148): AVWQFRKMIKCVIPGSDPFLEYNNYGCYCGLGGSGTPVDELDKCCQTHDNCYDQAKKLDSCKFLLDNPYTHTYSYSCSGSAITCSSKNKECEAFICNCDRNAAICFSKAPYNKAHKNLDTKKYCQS

commercial purified porcine GIBsPLA2: commercial purified porcine GIBsPLA2
induction of abnormal membrane microdomains (aMMD) (purified HD CD4 T cells [1]): induces abnormal MDM | effect on IL-7 induced nuclear translocation of phosphoSTAT5 (NT pSTAT5) (purified HD CD4 T cells [2]): block IL-7 pSTAT5 nuclear translocation

hPLA2 IB: recombinant human PLA2 IB (in E. coli)
Specific activity [3]: 10694.57 U/ug/s | enzymatic activity (in words) [3]: potent enzymatic activity

hPLA2 IID: recombinant human PLA2 IID (E. coli)
Specific activity [3]: 445.21 U/ug/s | enzymatic activity (in words) [3]: not active

mutant H48Q: porcine PLA2 GIB mutant, histidine at position 48 replaced by glutamine, produced in E. coli
induction of abnormal membrane microdomains (aMMD) (purified HD CD4 T cells [1]): lost the ability | effect on IL-7 induced nuclear translocation of phosphoSTAT5 (NT pSTAT5) (purified HD CD4 T cells [2]): lost the ability | enzymatic activity of mutant vs recombinant porcine PLA2 GIB [3]: lost all of its enzymatic activity | enzymatic activity of mutant vs recombinant porcine PLA2 GIB ([3]; listed as pPLA2GIB H48Q): Absence of activity

pPLA2 IB: recombinant porcine PLA2 IB (in E. coli)
Specific activity [3]: 10353.57 U/ug/s

ppPLA2 IB: Purified porcine pancreas PLA2 IB
Specific activity [3]: 7694.31 U/ug/s

B1: IL-7: recombinant glycosylated human IL-7 (Cytheris) (protein, UniProt P13232 26-177, looked up)
Interleukin-7: DCDIEGKDGKQYESVLMVSIDQLLDSMKEIGSNCLNNEFNFFKRHICDANKEGMFLFRAARKLRQFLKMNSTGDFDLHLLKVSEGTTILLNCTGQVKGRKPAALGEAQPTKSLEENKSLKEQKKLNDLCFLKRLLQEIKTCWNKILMGTKEH
modifications: glycosylated
MMD size (purified HD CD4 T cells [1]): 90 nm | number of MMD per CD4 T cell (purified HD CD4 T cells [1]): 300 MMD/cell | phospho-STAT5 found in the nucleus (purified HD CD4 T cells [2]; HD CD4 T cells, five minutes following IL-7 stimulation): 50%

B2: hPLA2 IIA: recombinant human PLA2 IIA (in E. coli) (protein, UniProt P14555 21-144, looked up)
Phospholipase A2, membrane …: NLVNFHRMIKLTTGKEAALSYGFYGCHCGVGGRGSPKDATDRCCVTHDCCYKRLEKRGCGTKFLSYKFSNSGSRITCAKQDSCRSQLCECDKAAATCFARNKTTYNKKYQYYSNKHCRGSTPRC
Specific activity [3]: 214.93 U/ug/s | enzymatic activity (in words) [3]: not active

B3: recombinant PLA2 soluble receptor: soluble murine receptor specific for PLA2 GIB, SEQ ID NO: 22 (protein)
chain: MVQWLAMLQLLWLQQLLLLGIHQGIAQDLTHIQEPSLEWRDKGIFIIQSESLKTCIQAGKSVLTLENCKQPNEHMLWKWVSDDHLFNVGGSGCLGLNISALEQPLKLYECDSTLISLRWHCDRKMIEGPLQYKVQVKSDNTVVARKQIHRWIAYTSSGGDICEHPSRDLYTLKGNAHGMPCVFPFQFKGHWHHDCIREGQKEHLLWCATTSRYEEDEKWGFCPDPTSMKVFCDATWQRNGSSRICYQFNLLSSLSWNQAHSSCLMQGGALLSIADEDEEDFIRKHLSKVVKEVWIGLNQLDEKAGWQWSDGTPLSYLNWSQEITPGPFVEHHCGTLEVVSAAWRSRDCESTLPYICKRDLNHTAQGILEKDSWKYHATHCDPDWTPFNRKCYKLKKDRKSWLGALHSCQSNDSVLMDVASLAEVEFLVSLLRDENASETWIGLSSNKIPVSFEWSSGSSVIFTNWYPLEPRILPNRRQLCVSAEESDGRWKVKDCKERLFYICKKAGQVPADEQSGCPAGWERHGRFCYKIDTVLRSFEEASSGYYCSPALLTITSRFEQAFITSLISSVAEKDSYFWIALQDQNNTGEYTWKTVGQREPVQYTYWNTRQPSNRGGCVVVRGGSSLGRWEVKDCSDFKAMSLCKTPVKIWEKTELEERWPFHPCYMDWESATGLASCFKVFHSEKVLMKRSWREAEAFCEEFGAHLASFAHIEEENFVNELLHSKFNWTQERQFWIGFNRRNPLNAGSWAWSDGSPVVSSFLDNAYFEEDAKNCAVYKANKTLLPSNCASKHEWICRIPRDVRPKFPDWYQYDAPWLFYQNAEYLFHTHPAEWATFEFVCGWLRSDFLTIYSAQEQEFIHSKIKGLTKYGVKWWIGLEEGGARDQIQWSNGSPVIFQNWDKGREERVDSQRKRCVFISSITGLWGTENCSVPLPSICKRVKIWVIEKEKPPTQPGTCPKGWLYFNYKCFLVTIPKDPRELKTWTGAQEFCVAKGGTLVSIKSELEQAFITMNLFGQTTNVWIGLQSTNHEKWVNGKPLVYSNWSPSDIINIPSYNTTEFQKHIPLCALMSSNPNFHFTGKWYFDDCGKEGYGFVCEKMQDTLEHHVNVSDTSAIPSTLEYGNRTYKIIRGNMTWYAAGKSCRMHRAELASIPDAFHQAFLTVLLSRLGHTHWIGLSTTDNGQTFDWSDGTKSPFTYWKDEESAFLGDCAFADTNGRWHSTACESFLQGAICHVVTETKAFEHPGLCSETSVPWIKFKGNCYSFSTVLDSRSFEDAHEFCKSEGSNLLAIRDAAENSFLLEELLAFGSSVQMVWLNAQFDNNNKTLRWFDGTPTEQSNWGLRKPDMDHLKPHPCVVLRIPEGIWHFTPCEDKKGFICKMEAGIPAVTAQPEKGLSHSIVPVTVTLTLIIALGIFMLCFWIYKQKSDIFQRLTGSRGSYYPTLNFSTAHLEENILISDLEKNTNDEEVRDAPATESKRGHKGRPICISP
modifications: soluble receptor
effect on activity of PLA2sGIB on NT of pSTAT5 (human GIBsPLA2): significantly block the negative effect of PLA2sGIB on the NT of pSTAT5 | effect on activity of PLA2sGIB on NT of pSTAT5 (human GIBsPLA2; listed as sMR): inhibits the activity of human PLA2G1B

B4: hPLA2 X: recombinant human PLA2 X (in E. coli) (protein, UniProt O15496 43-165, looked up)
Group 10 secretory …: GILELAGTVGCVGPRTPIAYMKYGCFCGLGGHGQPRDAIDWCCHGHDCCYTRAEEAGCSPKTERYSWQCVNQSVLCGPAENKCQELLCKCDQEIANCLAQTEYNLKYLFYPQFLCEPDSPKCD
Specific activity [3]: 3318.97 U/ug/s | enzymatic activity (in words) [3]: very limited activity
